The domain aggregation screens of Martell et al. (2025)

Experiment: soluble fraction after stress (log2 fold change); higher = more stays soluble; pooled small domains, quantitative proteomics
Settings: stress: 50 degC
How it was run: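 After stress at 50°C, the amount of each protein still soluble was measured. This was done on pooled custom libraries of small protein domains, using high-throughput quantitative proteomics. The figure given is a base-two log fold change and stands for aggregation propensity, with higher values meaning more protein stays in solution.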

Sequence | soluble fraction (log2)
HMVVRRLPFGFSKRFGVLVVPGTSNPVELLYREDASMQSLLEARRVVAQPVAFKKTDVESFNAQLARAHEN | -1.23
HMDQPLIEPLSERELEVLSLIAAGYSNAEIAERLVIAVGTVKRHINNLYGKLGAGSRTQALAIAREIGLM | 0.0589
HMSGITDIITDGKATSRPVVVTDGGHIRVLSPYTSFAIYTLGGMSLPTESRLEPGIYIVVVDSNAVKVAV | -0.619
HMGVNEGVNKLFKTIQETPGKRMPYYALATDVPEKTIERWLKQLREEGKIEFKGSAKTGGYFVIDK | 0.0649
HMNALNDLESKIFEEVVKAPEIIMNMTIREFASTVHASPTTIVRMTHKLGFSGWNELKTYLQKQKHQIS | -1.02
HMQGEVVTNRSVIDMSRAGLSADIIRAKILRSDTNFDVTAKALIELKESGVPDDIIALMLERADS | 0.128
HMFQYEKIKDYILTGLEEGTWQAGDKIPSEAELVMSLNVSRMTVNRAVRELANSGLLVRIPGAGTFVATE | -0.575
HMLDTPLTARELDVLYLMRQRMSAKEIAKQLGIATMTVNRHAANLYRKLGVNTRWDAVYRAEEVGILPP | -0.992
HMKFYKMIDESDEKIENPEIMIFQIIELVSSTTYSAIINKEPVDVETLKPYLYQTIRTIIINHQS | 0.144
HMEWTVEKQAAATLNAWMRKNSEMTSEKKVAVAAGIGPATVNRIMKAEVSTTIGVLSSLARAFGHEAYEMI | -0.276
HMKGIHDYITKDGLRVVKVHYSADPDKDVTTVEGKKWMAKALLGYPGGLEGAKWRREMEIDFNA | -0.0848
HMETMSGTVKWFNTQKGYGFITGDDGAEYFAHQTQIKMDGFRTLDAGDIVEFDVRSEEKGLAAVNIVP | -0.0597
HMGTHSAEQVRAAIRAIVAAEDAANPLSDARITELLAMRGIAAARRTVMKYREQLGIPSSAKRRR | -0.343
HMSEYIFGKNVVKEAFNNPSRIEEIYVLDKNMEFVSLAKKYHIKYTVITSSEMNKMVSGNHQGVVALVK | -0.277
HMNFTMERLYTKELTSEDIDEIKKELNSMGYTEGVEFNIIKGDKTSFIMAERQLKAKMLSHLSDLGLPRGA | -0.152
HMPTQGELAILRVLWEQGPSTVRAVWEKLNSQSGTGYTTALKLMQIMAQKGLVSRDESQKTHVYRA | -1.42
HMTTLAADFNSDGRVDIGDLSILAGNWGKSRTNEVDFNKYGDADYNGRIDIIDLSILATQFGQTDNSN | -0.0889
HMVIDFYDPQTKVIHEIKKSSAKEEAHVWQVKYYIYLFEKEEIMGVKGVLEYPLLREIVSVNF | 0.187
HMFAKVEGITGDILDKLQQQRGFLALSDKSSPEAIYDTFGVSKKVFKQAIGTLFKQQKISIEAEGIRLV | -0.709
HMFDGTLSIYPNPSKGIFNLDLLNVKDGEYTITVDNLLGQEVYSEIRNVINSSSKTLDLSNLTKGV | -0.173
HMPELSITDADIIVAGGRGMGSAENFGLIRELAGLLGAAVGASRVVVDAEWVDQKHLIGQTGK | -0.112
HMDSDFIKIEVLFNERNRLDLKAMMEASGFTDRGQFLSIMADLTGDENWDRNLDRGDIFYLPRSFTI | -1.22
HMGGKYKGVIIGHLIDKTLRYNELQKLISHATPKMLIQQLKELEADGIIQRKLYPVVPPKTEYSLTERG | -0.754
HMKKNTEALDYYKKAGANFPEDEVISSEYLFRAAQLQEVLGKTDEAVAIYKDIKAKYPTTEIGLNVDKFIL | -0.0868
HMQTPVTVGDTMPNLIGTPKRLLLELLNRTDITVKLTGDGYVTAQSPAAGTPIAKGMIIELSL | -0.296

Sequence | soluble fraction (log2)
HMVDIIMDLLEAVAQARPADAFIKSLHIQYQERGGLSKKQLQGLYGKAAKTAGIPPGKLATLEAIILKRP | -1.38
HMNDNQNKQMLWELLKDNRAFDNFDNKDYKTIIHLFNETVNTIDHRTPNLDLIKKNKIFIQDIMQKLSNL | -1.13
HMEHIVNELDRKVIDYLQSHYDAKLNDIAQGIGVSKATATKSIRKLVQTGIVHVVGSSGTGTSYNLTE | -0.152
HMNHNPSIARKISREIKRGAPPESLLNLARTVNDSYYRSLSFVSIAYSIKGKKSKELFEEAISNLT | -0.161
HMETKIKFQIQTLDELNIRKVADWDAKAITTVKKGQILDVVDTVAAKNGSTPMYRLESGLYITASPKYVKK | -0.376
HMLTAHEAILKELRKMLLTGVLSPGEAVRPEIIGESFGVSAVPVREALRILEGEGQVLNRPHKGYVVT | -0.568
HMPATIEGIRLYLSSGLIKGVGEEMASRIVKAFGTDTIRVLDEEPERLLKVRGVGKKSLDRIRTSWAEH | -0.386
HMGQVSDETGLARVVDALLAAHPDEVAKYRAGKTSLLGWFMGQVMKETRGQANPDLARALVLERLE | -0.101
HMVGIAEAMKHIADEDYGDLSAIFKQIFSDTDGGRNFSDAIRTQMRSTDSSGLRKVLSTLIMSIEE | -0.498
HMVVADFQNYTVKPKENLYSLTKTSGLSQEELVALNPELKNGVQEGMVIKLPAAVKLMAQPE | 0.15
HMPKTATIVIDLNYADAKEIVENLQTILAGETKDISVAPHPSANQIIASGDRWEVENISTIIKQLDR | 0.00694
HMAASGTVNSGGDPLRVRADPNTSSQILTKLSDGTQVEVLEQAENGWYKIAHEGISGFVSGEYLVVH | 0.133
HMPTERLSMRRIRELLRLRFEVGLSTRLIATALGISKGAVGDYLQRAQVAGLGWPLPENLNDAALERRLFP | -0.681
HMEYDEVVVVKQIIPKGKNTMVAHLKHLKEHGETGFLKQAVGYLKLHASEIPFSVDAVISEVH | -0.361
HMGIEQVELASRVRDAVDSLPHHLREIILLSYFQKMSYNQIAETLQVPLGTVKSRLHAAVASFAQAWTQSS | -0.706
HMIPESVQGIEEFLATGALKGIGKKTAAAIVHKFGKDTLRIMEEEPERLAEVSGIGEKKAAAIGEAFALH | 0.171
HMDENMQRYNTMEEIKKEFPYAEDTVRKLIAMGAIRGGGKVDANGDPADMDLSRDMLRMMVFNDRAGAYG | 0.544
HMQNPYDTLGVSRDSTDAEIKKAYRKLAMEHHPDKGGDSQRFAEINNAYDNIKDMSSRQNFENDPSNFQ | 0.288
HMNVEKLREMYPEGTKIILQEMQGESRMAKGLKGTVTHVDDAGQIHMKWENGSSLVLNVEVDTFKKIE | 0.0915
HMGIAKLLTEQEYKIALLAAERRTNAMIAEEMNLTENTVKTHLKHIFDKVGIAGNAKNKRHLLADMMNSER | -0.277
HMISKRFQIDEDNSNKRIDIFLTQSLDSISRGIVQQLILENKVEVNGGPVKRNYLIKIGDVIDVKIDL | -0.939
HMFPASQPVPTDLNQIVRAGLEVFSGRLEGIDVRVSLEPELPRVNVDPEHFKRIVVNLVDNAAEAMQNS | -0.0549
HMKIKLQATEQQRKTLDELYVQLKKLEPTSKEDLSLLYRLENPHLVSKQEAQGLISIAIGRVGSLAIEQQ | -0.27
HMESPVNTLPEDQRAWYKALPPELSTKTAVEAGAGVGVSERTVKRLLSNQTFFINLQRGNYRKRH | 0.172
HMDLDSGVAVLRTLMSQHNLQTDDFQNEIGGKSMVSMILNGTRKLSKNHIQALSGRFNLSPALFF | -0.962

Sequence | soluble fraction (log2)
HMVQDSEWWRNYQSAHDYFIQNGHLNVLRSDKKNTKLYNWIVGQRSSRWNSQGRINLLNSIGFIWDT | -3.08
HMGDGYTYYYDDTVLALGFTKIGNDYYIFNTFSGKMYKDATMWVNDNPYGIKGGMHYFDASGKMFV | 0.128
HMHWDIAQADAKQEVMDSSDDKEAIERIQANMFKDPKDHDQEYANKILNDMIDEIKEKGLEAMQHKFAQE | -0.379
HMEFFIIDHNGQQAGPFSFDQLVQKGISPETLVWKQGMADWNPAWKVEELKAVLEAVEANQSNQKAQ | 0.462
HMNETLKQIRINALQYSEKDMATKLGLPLSEYKEIENDKPLNFTLLIRLSQAVGKTIDDLLNAQ | 0.0115
HMRIWTPEMIKEYIISSNGKEPLNSHYYSTNHPSIYAAAERIFGSWGNAINAAGLDYNAIRKYK | -0.00482
HMHDPLATLTPREHEVMSLMAEGRTNAAIAQALVIGTGAVEKNVTSIFQKLGLDDSGTDHRRVLAVLAWLQ | -2.14
HMDKSPVLQLNRDVPAGQQISADDFRTVEIGADGAFRSVPSSDLNAMVGSYAKVRLIAGTLLAREALQSG | 0.0412
HMTSHPTHTILDGKVHVFMRDGSPFWWGGFHFKGKYLRTSTKQKNLDSAKTIAQQWYFQKQTEIASGE | -2.67
HMDMSVDQFNQGIRGSELYQQFIHGRGLQQPDGKTREWTDADRNAWRRTLEASGVRIPDGMKIDNAGNLNE | 0.275
HMLDEPPVSQTLTTYDREHMALYLRLLDSARDGADWREAVQILFGLDPTRDPLRSRHVHDTHLARARWM | -0.131
HMESRMTYLQKTKLATENLDAKLIDHQQWVAEVLGEDYRGVYSDEYLRRAAKVFAIFVNNLDD | -2.18
HMTTIPAGRQQYILSLIRREGTVTVSRLAQELEVSELTIRRDLDQMAARNLVERTHGGATERR | -0.138
HMPHFGVVLQMDDWKTLRDRLEARDDIDWVMKPNLRFEGQPGEQATLFIRDPSGNALEFKGFADLSQVF | -0.348
HMNIAEIGQKVAQQRVALGISQERLAKLSDLSRSTIHHLEHGTLHEIGAAKLFKLLSLLDIQLK | -0.761
HMWQKGEPAITGLKRISKPGLRIYSKNDELPIVYGNRGIAVISTNKGVMTGIEAKRSGVGGEVLFYV | -0.045
HMVSVEELLSSLDPNEATVLKLLAERSSGVDELMERSGLDFSALSEAITNLELFGYIAREMDGVYSFS | -0.559
HMLPVFNYQVYRTHGLIYVYAKDNDSFDQIARSMGFKAKQLMKFNEVPEDFPLQAGDIVYLEKKKK | -1.42
HMAAAQILRAAVLRVPAEETMRFVTETPELRRYLGASLGPTAAIVRPGQEQNLAAALQSHGILVEFDE | 0.0258
HMKKVIEFKDVSFAFEKKPILQDFNLLVQNKDRIGIVGDNGVGKSTLLNLIAERLQPQSGQVII | 0.00568
HMQLDLNENEKIIFEILQNNKTMQLSNLKTQTELSNKGWDKAIKSLTKQGLAKVSKIDNELIVEFL | -0.249
HMFPELTDDEQLIVSTLAKTNDMQINMLAVRTGIPVQRMSALLFSLEMKGVVKMYAGGTYHLL | -1.05
HMGDEHYDTISAFIKSVRGSDPDAALYWLAKMILAGEDPRFILRRLIVLSGEDIGLADPQGI | -0.653
HMGDTIFINNNFYVKHIVEFGETIDIISKIYDVSVNKILETNETSTKLYSGQSLFIPININV | -3.4
HMQSKSEINELPKSIHMAFSPKNFELFIDNLKINEIDFSNWKGELNTIQERVDGQRQIWIQDPQGYWIEIN | -0.018
